Laboratory results from US20250388623A1, “PEPTIDE INHIBITOR AND USE THEREOF” (CHENGDU BRILLIANT INSPIRATION BIOTHERAPEUTICS CO., LTD, priority 2022, published 2025).

Columns and labels:
[1] = target: TSP-1 protein (novoprotein, Catalog No. CU45), P07996; test: competition ELISA, TSP-1 coated, CD36-Fc as competitor, peptide 0-100 µM
[2] = target: TSP-1 protein expressed by PMA-differentiated THP-1 macrophage-like cells, P07996; test: cell-based or functional assay
[3] = target: TSP-1 protein (novoprotein, Catalog No. CU45), P07996; test: competition ELISA, TSP-1 coated, CD36-Fc 0.25 µg/mL as competitor, peptide 100 µM

Chain of TSP-1 protein (novoprotein, Catalog No. CU45), P07996 (P07996 19-1170 limits assumed): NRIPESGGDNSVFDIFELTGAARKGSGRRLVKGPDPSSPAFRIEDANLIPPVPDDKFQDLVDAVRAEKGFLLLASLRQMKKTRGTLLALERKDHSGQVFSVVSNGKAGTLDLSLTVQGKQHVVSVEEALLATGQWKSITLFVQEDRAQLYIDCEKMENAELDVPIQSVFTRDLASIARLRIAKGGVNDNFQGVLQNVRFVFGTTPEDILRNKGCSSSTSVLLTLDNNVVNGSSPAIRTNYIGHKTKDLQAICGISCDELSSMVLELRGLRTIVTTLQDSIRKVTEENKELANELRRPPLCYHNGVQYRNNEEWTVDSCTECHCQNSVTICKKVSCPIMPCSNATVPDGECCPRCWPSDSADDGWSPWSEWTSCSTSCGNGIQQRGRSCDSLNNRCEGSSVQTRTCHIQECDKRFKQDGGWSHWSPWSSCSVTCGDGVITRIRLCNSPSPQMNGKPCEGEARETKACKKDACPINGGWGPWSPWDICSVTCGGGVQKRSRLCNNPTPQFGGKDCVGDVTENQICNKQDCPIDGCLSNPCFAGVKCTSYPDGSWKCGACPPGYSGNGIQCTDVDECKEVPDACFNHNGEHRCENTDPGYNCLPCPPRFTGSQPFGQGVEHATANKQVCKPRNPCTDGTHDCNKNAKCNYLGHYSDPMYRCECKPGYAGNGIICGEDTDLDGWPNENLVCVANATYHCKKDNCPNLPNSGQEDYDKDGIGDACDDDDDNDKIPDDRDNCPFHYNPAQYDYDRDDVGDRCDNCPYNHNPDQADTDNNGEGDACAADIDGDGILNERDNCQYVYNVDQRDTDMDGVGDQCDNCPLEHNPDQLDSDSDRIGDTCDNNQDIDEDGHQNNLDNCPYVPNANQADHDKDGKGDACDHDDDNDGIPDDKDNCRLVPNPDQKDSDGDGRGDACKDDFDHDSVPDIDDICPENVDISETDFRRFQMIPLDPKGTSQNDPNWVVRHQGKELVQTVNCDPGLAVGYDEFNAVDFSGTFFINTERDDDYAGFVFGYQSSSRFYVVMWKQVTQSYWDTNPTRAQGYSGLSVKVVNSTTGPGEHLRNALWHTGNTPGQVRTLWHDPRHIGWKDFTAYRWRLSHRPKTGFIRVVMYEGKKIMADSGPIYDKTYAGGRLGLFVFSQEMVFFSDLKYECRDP
Chain of TSP-1 protein expressed by PMA-differentiated THP-1 macrophage-like cells, P07996 (P07996 19-1170 limits assumed): as above

Row | Binder | IC50 [1] [µM] | Mean (relative fluorescence intensity), 293-TGFβ Res reporter cells (ratio to negative control) [2] | Blocking rate (Mean, %) [3] [%]
1 | TCDAEDNC (modifications not checked) [SEQ ID NO: 43] | 3.62 | 0.65 | 52
2 | TCDAEDNC (modifications not checked) [SEQ ID NO: 44] | 6.71 | 0.43 | 52.9
